According to patent US20210139574A1 (UCB, published 2021):
One block for each binder: values may come before it. Square brackets hold non-standard residues; d marks the D form. Ends that are not written are not given here. Tyr(3-NO2) = N[C@@H](Cc1ccc(O)c([N+](=O)[O-])c1)C(=O)O; pS = N[C@@H](COP(=O)(O)O)C(=O)O

B3: Tau-binding humanised antibody having the light chain of SEQ ID NO: 17 and the heavy chain of SEQ ID NO: 20 (antibody, human IgG4 S228P, kappa)
light: DIQMTQSPSSLSASVGDRVTITCQASQSVSSYLAWYQQKPGKAPKLLIYAASYLASGVPSRFSGSGSGTDFTLTISSLQPEDFATYYCQQGYTRTDIDNTFGGGTKVEIKRTVAAPSVFIFPPSDEQLKSGTASVVCLLNNFYPREAKVQWKVDNALQSGNSQESVTEQDSKDSTYSLSSTLTLSKADYEKHKVYACEVTHQGLSSPVTKSFNRGEC
heavy: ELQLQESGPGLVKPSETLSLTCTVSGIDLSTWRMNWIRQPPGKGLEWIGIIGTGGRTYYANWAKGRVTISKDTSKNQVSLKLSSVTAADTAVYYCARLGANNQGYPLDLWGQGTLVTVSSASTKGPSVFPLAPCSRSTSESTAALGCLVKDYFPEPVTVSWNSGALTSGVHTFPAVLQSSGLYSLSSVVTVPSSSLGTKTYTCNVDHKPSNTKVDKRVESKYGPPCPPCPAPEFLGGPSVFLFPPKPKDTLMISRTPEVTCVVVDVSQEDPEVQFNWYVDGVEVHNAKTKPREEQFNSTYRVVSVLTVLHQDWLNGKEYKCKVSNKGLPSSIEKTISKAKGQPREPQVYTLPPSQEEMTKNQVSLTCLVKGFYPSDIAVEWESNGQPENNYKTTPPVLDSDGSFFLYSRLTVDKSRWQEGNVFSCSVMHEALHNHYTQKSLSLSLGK

Experiments:
[1] = target: T1, Tau seeds: sonicated human insoluble Tau from patients with progressive supranuclear palsy (PSP-PHF, fraction … (human, UniProt P10636-8 2-441, limits assumed)); experiment: cell-based or functional assay
T1 sequence (P10636 other isoform, or with tags, fused parts or gaps limits assumed): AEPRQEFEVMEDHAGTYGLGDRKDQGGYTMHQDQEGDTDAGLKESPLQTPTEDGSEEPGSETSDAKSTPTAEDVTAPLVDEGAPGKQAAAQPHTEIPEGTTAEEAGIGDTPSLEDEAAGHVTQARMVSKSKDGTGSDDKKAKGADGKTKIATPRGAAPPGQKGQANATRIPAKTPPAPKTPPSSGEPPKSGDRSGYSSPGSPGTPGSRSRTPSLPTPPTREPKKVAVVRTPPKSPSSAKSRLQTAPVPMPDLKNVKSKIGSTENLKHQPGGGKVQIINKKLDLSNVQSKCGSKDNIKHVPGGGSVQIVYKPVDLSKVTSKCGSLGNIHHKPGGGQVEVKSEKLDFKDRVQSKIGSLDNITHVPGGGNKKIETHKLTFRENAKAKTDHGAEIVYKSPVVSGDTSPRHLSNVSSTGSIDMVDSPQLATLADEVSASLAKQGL

[2] = target: Tau seeds: sonicated human insoluble Tau from patients with frontotemporal dementia (FTD-PHF) (human, UniProt P10636-8 2-441, limits assumed); experiment: cell-based or functional assay
Sequence of Tau seeds: sonicated human insoluble Tau from patients with frontotemporal dementia (FTD-PHF) (P10636 other isoform, or with tags, fused parts or gaps limits assumed): as above

[3] = target: T2, Tau seeds: sonicated human insoluble Tau from patients with Alzheimer's disease (AD-PHF, fraction 8) (human, UniProt P10636-8 2-441, limits assumed); experiment: cell-based or functional assay
T2 sequence (P10636 other isoform, or with tags, fused parts or gaps limits assumed): as above

[4] = target: B3; experiment: SPR competition: no significant inhibition of L17H20 binding to immobilised HEK Tau isoform-2
From the text: Recombinant Tau isoform-2 monomer (amino acids 1-441), expressed and purified from HEK cells, and insoluble Tau protein in the form of a paired helical filament preparation isolated from Alzheimer's disease patient brain (AD-PHF), were amine immobilized onto the CM5 chip using a Biacore 3000 instrument and HBS-EP (GE Healthcare) as running buffer. The former were amine coupled to flow cells 2 and 4 respectively following activation of the carboxymethyl dextran surface these and reference flow cells by injection of 70 μl of a fresh mixture of 50 mM N-hydroxysuccimide and 200 mM 1-ethyl-3-(3-dimethylaminopropyl)-carbodiimide at a flow rate of 10 μl/min. Immobilization of tau monomer was achieved by injecting 160 μl at 50 μg/ml in 10 mM acetate pH 5.0 buffer, whereas AD-PHF was immobilized by injecting twenty 160 μl aliquots at 2 μg/ml in 10 mM acetic acid (pH3.0). […]
Epitope mapping was carried out by pre-incubating solutions of a Tau-binding humanised antibody having the light chain of SEQ ID NO: 17 and the heavy chain of SEQ ID NO: 20 (L17H20) and test peptide or buffer controls, prepared in running buffer at 200 nM and 5000 nM respectively. […] Response units of antibody binding were recorded at report points taken 15 sec after the end of each injection as the difference between values of test and reference flow cells. […]

[5] = target: T3, Tau seeds: brain fraction from transgenic mice expressing human Tau P301L (human, UniProt P10636-8 1-441, limits assumed); experiment: cell-based or functional assay
T3 sequence (P10636 other isoform, or with tags, fused parts or gaps P301L P301L limits assumed): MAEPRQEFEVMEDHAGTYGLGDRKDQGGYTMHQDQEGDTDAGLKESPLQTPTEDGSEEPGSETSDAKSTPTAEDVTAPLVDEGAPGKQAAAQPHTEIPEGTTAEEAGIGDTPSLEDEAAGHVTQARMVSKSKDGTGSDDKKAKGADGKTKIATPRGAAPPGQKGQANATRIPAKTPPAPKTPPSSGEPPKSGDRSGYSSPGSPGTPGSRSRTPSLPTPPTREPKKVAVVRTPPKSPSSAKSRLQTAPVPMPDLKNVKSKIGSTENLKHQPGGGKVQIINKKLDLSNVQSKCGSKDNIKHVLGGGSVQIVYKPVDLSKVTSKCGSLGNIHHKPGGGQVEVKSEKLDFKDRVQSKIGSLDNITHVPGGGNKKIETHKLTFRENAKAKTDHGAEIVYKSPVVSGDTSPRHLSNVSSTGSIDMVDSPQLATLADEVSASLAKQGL

[6] = target: T1, Tau seeds: sonicated human insoluble …; experiment: cell-based or functional assay; remark: listed apart in the source
[7] = target: T3, Tau seeds: brain fraction from …; experiment: cell-based or functional assay; remark: listed apart in the source
[8] = target: T2, Tau seeds: sonicated human insoluble …; experiment: cell-based or functional assay; remark: listed apart in the source
[9] = target: T4, HEK-derived Tau isoform-2 monomers (amino acids 1-441) (human, UniProt P10636 1-758); experiment: SPR (Biacore T200), Tau amine-immobilised on CM5, mFab as analyte
T4 construct: Expressed in Expi293F cells, N-terminal 10His-TEV tag removed with TEV protease; phosphorylation state not described; also called HEK iso-2; HEK Tau
T4 sequence (P10636 other isoform, or with tags, fused parts or gaps): as the sequence (P10636 other isoform, or with tags, fused parts or gaps P301L P301L limits assumed) above, with L301P counted along it
Protocol: Selected monoclonal Fab fragments (mFab) were prepared from murinised mAB 1 antibody with light chain of SEQ ID No.: 58 and heavy chain of SEQ ID No.: 59 using the Pierce Ficin cleavage kit (Cat. No. 44980, Thermo Scientific) according to the protocol of the manufacturer. Absorption at 280 nm was used to determine the concentration of the Fab stock solutions for the Biacore analysis. An insoluble Tau protein preparation from Alzheimer's disease patients (AD-PHF, fraction 11), the HEK-derived Tau isoform-2 monomers (amino acids 1-441), and the isoform-2 monomers expressed in E. coli were amine immobilized onto the CM5 chip, and binding of anti-Tau mFabs was measured with the Biacore T200 instrument. The buffer HBS-EP from GE Healthcare was used for immobilizations apart from the AD-PHF for which 10 mM acetic acid (pH3.0) was used. The HBS-EP+ buffer was supplemented with 300 mM NaCl and 1.25% CM-Dextran (Sigma) and used as the assay buffer. While flow cell (Fc) 1 was used as a reference, the following RU values were obtained for Fc2-4: 44 RU with 5 ug/ml E. coli Tau, 56 RU with 5 ug/m HEK Tau, and 500 RU with a 1:20 diluted solution of the AD-PHF material. Two 60 s cycles of 10 mM Glycine (pH1.7) were used for regeneration. Flow rates of 10 ul/min were used for immobilization and regeneration while a 30 ul/min flow rate was used for analyte binding. […]

[10] = target: T5, insoluble Tau protein preparation from Alzheimer's disease patients (AD-PHF), immobilised for Biacore (human, UniProt P10636-8 2-441, limits assumed); experiment: SPR (Biacore T200), AD-PHF (fraction 11) amine-immobilised on CM5, mFab as analyte
T5 construct: also called AD-PHF, fraction 11; Tau PHF fibrils from Alzheimer's disease patients
T5 sequence (P10636 other isoform, or with tags, fused parts or gaps limits assumed): as the sequence (P10636 other isoform, or with tags, fused parts or gaps limits assumed) above
Protocol: Selected monoclonal Fab fragments (mFab) were prepared from murinised mAB 1 antibody with light chain of SEQ ID No.: 58 and heavy chain of SEQ ID No.: 59 using the Pierce Ficin cleavage kit (Cat. No. 44980, Thermo Scientific) according to the protocol of the manufacturer. Absorption at 280 nm was used to determine the concentration of the Fab stock solutions for the Biacore analysis. An insoluble Tau protein preparation from Alzheimer's disease patients (AD-PHF, fraction 11), the HEK-derived Tau isoform-2 monomers (amino acids 1-441), and the isoform-2 monomers expressed in E. coli were amine immobilized onto the CM5 chip, and binding of anti-Tau mFabs was measured with the Biacore T200 instrument. The buffer HBS-EP from GE Healthcare was used for immobilizations apart from the AD-PHF for which 10 mM acetic acid (pH3.0) was used. The HBS-EP+ buffer was supplemented with 300 mM NaCl and 1.25% CM-Dextran (Sigma) and used as the assay buffer. While flow cell (Fc) 1 was used as a reference, the following RU values were obtained for Fc2-4: 44 RU with 5 ug/ml E. coli Tau, 56 RU with 5 ug/m HEK Tau, and 500 RU with a 1:20 diluted solution of the AD-PHF material. Two 60 s cycles of 10 mM Glycine (pH1.7) were used for regeneration. Flow rates of 10 ul/min were used for immobilization and regeneration while a 30 ul/min flow rate was used for analyte binding. For AD-PHF, multiple manual injections were applied to reach 500 RU, including EDC/NHS and EtoA capping. Five start-up cycles and 12 cycles per mFab sample or buffer control were applied, using 90 uls analyte injections for either 180 s or 300 s for dissociation. 11 1:3 dilutions of a 600 nM solution plus buffer were used for each mFab.

B1: Tau-binding antibody having the light chain of SEQ ID No.: 17 and the heavy chain of SEQ ID No.:23 (antibody, human IgG1, kappa)
light: DIQMTQSPSSLSASVGDRVTITCQASQSVSSYLAWYQQKPGKAPKLLIYAASYLASGVPSRFSGSGSGTDFTLTISSLQPEDFATYYCQQGYTRTDIDNTFGGGTKVEIKRTVAAPSVFIFPPSDEQLKSGTASVVCLLNNFYPREAKVQWKVDNALQSGNSQESVTEQDSKDSTYSLSSTLTLSKADYEKHKVYACEVTHQGLSSPVTKSFNRGEC
heavy: not shown
Imax (maximal efficacy at 300 nM), cellular Tau aggregation assay [1]: 49%

B2: Tau-binding antibody having the light chain of SEQ ID No.: 17 and the heavy chain of SEQ ID No.:21 (antibody, human IgG4 S228P, kappa)
light: DIQMTQSPSSLSASVGDRVTITCQASQSVSSYLAWYQQKPGKAPKLLIYAASYLASGVPSRFSGSGSGTDFTLTISSLQPEDFATYYCQQGYTRTDIDNTFGGGTKVEIKRTVAAPSVFIFPPSDEQLKSGTASVVCLLNNFYPREAKVQWKVDNALQSGNSQESVTEQDSKDSTYSLSSTLTLSKADYEKHKVYACEVTHQGLSSPVTKSFNRGEC
heavy: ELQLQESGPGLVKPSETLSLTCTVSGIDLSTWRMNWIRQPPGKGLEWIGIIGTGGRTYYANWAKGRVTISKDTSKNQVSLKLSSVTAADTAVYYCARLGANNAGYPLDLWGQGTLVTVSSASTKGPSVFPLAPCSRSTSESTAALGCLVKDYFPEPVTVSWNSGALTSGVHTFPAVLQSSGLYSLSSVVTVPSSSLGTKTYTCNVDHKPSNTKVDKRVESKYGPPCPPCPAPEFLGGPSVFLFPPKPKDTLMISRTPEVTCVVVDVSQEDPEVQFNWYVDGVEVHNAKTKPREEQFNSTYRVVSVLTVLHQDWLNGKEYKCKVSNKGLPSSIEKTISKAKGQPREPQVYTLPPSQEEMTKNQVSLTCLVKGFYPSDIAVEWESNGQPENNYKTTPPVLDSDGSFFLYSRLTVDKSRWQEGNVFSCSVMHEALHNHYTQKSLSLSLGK
IC50, cellular Tau aggregation assay [1]: 66 nM
Imax (maximal efficacy at 300 nM), cellular Tau aggregation assay [1]: 47%

Binder: B3
IC50, cellular Tau aggregation assay [1]: 42 nM
Imax (maximal efficacy at 300 nM), cellular Tau aggregation assay [1]: 65%
IC50, cellular Tau aggregation assay [2]: 1 nM
Imax (maximal efficacy at 300 nM), cellular Tau aggregation assay [2]: 79%
IC50, cellular Tau aggregation assay [3]: 2 nM
Imax (maximal efficacy at 300 nM), cellular Tau aggregation assay [3]: 85%

B5: AB1 having a murinised VL of SEQ ID NO: 9 and a murinised VH of SEQ ID NO.: 10 (antibody, V domains shown)
VH: QVQLKESGPGLVAPSQSLSITCTVSGIDLSTWRMNWVRQPPGKGLEWIGIIGTGGRTYYANWAKGRFSISKDSTQVFLKMNSLQTEDTATYFCARLGANNNGYPLDLWGAGTTVTVSS
VL: DVVMTQSPASLAVSLGQRATISCQASQSVSSYLAWYQQKPGQPPKLLIYAASYLASGVPSRFKGSGSGTEFTLNIHPVEEEDAATYYCQQGYTRTDIDNTFGGGTKLEIK
Imax (maximal efficacy at 300 nM), cellular Tau aggregation assay [1]: 54%
IC50, cellular Tau aggregation assay [2]: 1 nM
Imax (maximal efficacy at 300 nM), cellular Tau aggregation assay [2]: 81%
IC50, cellular Tau aggregation assay [5]: 9 nM
Imax (maximal efficacy at 300 nM), cellular Tau aggregation assay [5]: 81%
IC50, cellular Tau aggregation assay [3]: 10 nM
Imax (maximal efficacy at 300 nM), cellular Tau aggregation assay [3]: 79%
IC50, cellular Tau aggregation assay (n=3) [6]: 70 nM
IC50, cellular Tau aggregation assay (n=2) [7]: 15 nM
IC50, cellular Tau aggregation assay (n=3) [8]: 27 nM

The next lines start with the values.

Imax (maximal efficacy at 300 nM), cellular Tau aggregation assay [1]: 47%
B4: Tau-binding antibody having the light chain of SEQ ID No.: 17 and the heavy chain of SEQ ID No.:24 (antibody, human IgG1, kappa)
light: DIQMTQSPSSLSASVGDRVTITCQASQSVSSYLAWYQQKPGKAPKLLIYAASYLASGVPSRFSGSGSGTDFTLTISSLQPEDFATYYCQQGYTRTDIDNTFGGGTKVEIKRTVAAPSVFIFPPSDEQLKSGTASVVCLLNNFYPREAKVQWKVDNALQSGNSQESVTEQDSKDSTYSLSSTLTLSKADYEKHKVYACEVTHQGLSSPVTKSFNRGEC
heavy: not shown

binding result [4]: no binding (tested: 5000 nM peptide)
Binder: [Tyr(3-NO2)][pS][pS]PG [T197H test peptide (nY pS pS P G)]

binding result [9]: no binding (tested: 600 nM)
Kd [10]: 590 nM
koff [10]: 0.047 s⁻¹
kon [10]: 79600 M⁻¹ s⁻¹
B6: mFab from murinised mAB1 antibody with light chain of SEQ ID No.: 58 and heavy chain of SEQ ID No.: 59 (Fab, V domains shown)
VH: QVQLKESGPGLVAPSQSLSITCTVSGIDLSTWRMNWVRQPPGKGLEWIGIIGTGGRTYYANWAKGRFSISKDSTQVFLKMNSLQTEDTATYFCARLGANNNGYPLDLWGAGTTVTVSS
VL: DVVMTQSPASLAVSLGQRATISCQASQSVSSYLAWYQQKPGQPPKLLIYAASYLASGVPSRFKGSGSGTEFTLNIHPVEEEDAATYYCQQGYTRTDIDNTFGGGTKLEIKR
notes: Fab made by ficin cleavage of the whole antibody; also called mFab from mAB1
